Experimental data: patent publication US7115722
Several values for one entry are separate records, joined by “and”; a condition that tells them apart may be missing. Equal entries are not always repeated.

Legend:
C-antigen (human) [1] = test: flow cytometry, SK-BR-3 cells, 5 mg/L
C-antigen (human) [2] = test: flow cytometry, SK-BR-3 cells, 4.0 mg/L IgG1
C-antigen (human) [3] = test: flow cytometry, SK-BR-3 cells, 3.3 mg/L IgG1
C-antigen (human) [4] = test: flow cytometry, SK-BR-3 cells, 3.9 mg/L IgG1
C-antigen (human) [5] = test: flow cytometry, SK-BR-3 cells, 2 mg/L IgG1
C-antigen (human) [6] = test: flow cytometry, live CA-46 cells, 100 µg/mL
C-antigen (human) [7] = test: cell-fixed ELISA, CA-46 cells, 2.5 µg/mL
C-antigen (human) [8] = test: radioligand binding to A-375 cells
C-antigen (human) [9] = test: cell-fixed ELISA, HT-29 cells, 2.5 µg/mL
C-antigen (human) [10] = test: cell-fixed ELISA, A-427 cells, 2.5 µg/mL
C-antigen (human) [11] = test: flow cytometry, live CCRF-CEM cells, 200 µg/mL
C-antigen (human) [12] = test: cell-fixed ELISA, DU-145 cells, 2.5 µg/mL
C-antigen (human) [13] = test: cell-fixed ELISA, MB-468 cells, 2.5 µg/mL
C-antigen (human) [14] = test: flow cytometry, live SKMG-1 cells, 100 µg/mL (second row)
C-antigen (human) [15] = test: flow cytometry, live RAMOS cells, 100 µg/mL
C-antigen (human) [16] = test: flow cytometry, live SKMG-1 cells, 100 µg/mL
C-antigen (human) [17] = test: cell-fixed ELISA, K-562 cells, 2.5 µg/mL
C-antigen (human) [18] = test: cell-fixed ELISA, SK-OV-3 cells, 2.5 µg/mL
C-antigen (human) [19] = test: cell-fixed ELISA, SK-BR-3 cells, 2.5 µg/mL
C-antigen (human) [20] = test: cell-fixed ELISA, SKMG-1 cells, 2.5 µg/mL
C-antigen (human) [21] = test: flow cytometry, live LS-174T cells, 200 µg/mL
C-antigen (human) [22] = test: cell-fixed ELISA, BT-20 cells, 2.5 µg/mL
C-antigen (human) [23] = test: flow cytometry, live CA-46 cells, 200 µg/mL
C-antigen (human) [24] = test: cell-fixed ELISA, BT-474 cells, 2.5 µg/mL
C-antigen (human) [25] = test: cell-fixed ELISA, SK-Co-1 cells, 2.5 µg/mL
C-antigen (human) [26] = test: flow cytometry, live SK-BR-3 cells, 200 µg/mL
C-antigen (human) [27] = test: cell-fixed ELISA, U-118MG cells, 2.5 µg/mL
C-antigen (human) [28] = test: cell-fixed ELISA, HEP-2 cells, 2.5 µg/mL
C-antigen (human) [29] = test: cell-fixed ELISA, LS17T cells, 2.5 µg/mL
C-antigen (human) [30] = test: flow cytometry, live RAMOS cells, 200 µg/mL
C-antigen (human) [31] = test: cell-fixed ELISA, T47D cells, 2.5 µg/mL
C-antigen (human) [32] = test: cell-fixed ELISA, U-2 OS cells, 2.5 µg/mL
C-antigen (human) [33] = test: cell-fixed ELISA, SK-MEL-28 cells, 2.5 µg/mL
C-antigen (human) [34] = test: flow cytometry, live CCRF-CEM cells, 100 µg/mL
C-antigen (human) [35] = test: cell-fixed ELISA, tumour cell lines, against BGA scFv
C-antigen (human) [36] = test: flow cytometry, live H9 cells, 200 µg/mL
C-antigen (human) [37] = test: cell-fixed ELISA, SK-LU-1 cells, 2.5 µg/mL
C-antigen (human) [38] = test: flow cytometry, live A-375 cells, 200 µg/mL
C-antigen (human) [39] = test: radioligand binding to SKMG1 cells
C-antigen (human) [40] = test: cell-fixed ELISA, SAOS-2 cells, 2.5 µg/mL
C-antigen (human) [41] = test: cell-fixed ELISA, A-375 cells, 2.5 µg/mL
C-antigen (human) [42] = test: cell-fixed ELISA, NCI-H82 cells, 2.5 µg/mL
C-antigen (human) [43] = test: cell-fixed ELISA, NCI-69 cells, 2.5 µg/mL
C-antigen (human) [44] = test: radioligand binding to LS174T cells
C-antigen (human) [45] = test: flow cytometry, live HT-29 cells, 200 µg/mL
C-antigen (human) [46] = test: flow cytometry, live MB-468 cells, 200 µg/mL
C-antigen (human) [47] = test: cell-fixed ELISA, DAUDI cells, 2.5 µg/mL
C-antigen (human) [48] = test: cell-fixed ELISA, PC-3 cells, 2.5 µg/mL
C-antigen (human) [49] = test: cell-fixed ELISA, SK-MEL-5 cells, 2.5 µg/mL
C-antigen (human) [50] = test: flow cytometry, live H9 cells, 100 µg/mL
C-antigen (human) [51] = test: cell-fixed ELISA, SW-9000 cells, 2.5 µg/mL
C-antigen (human) [52] = test: flow cytometry, live WI-38 human diploid lung cells, 100 µg/mL
C-antigen (human) [53] = test: cell-fixed ELISA, SK-N-MC cells, 2.5 µg/mL
C-antigen (human) [54] = test: cell-fixed ELISA, T-24 cells, 2.5 µg/mL
C-antigen (human) [55] = test: cell-fixed ELISA, D-54MG cells, 2.5 µg/mL
C-antigen (human) [56] = test: cell-fixed ELISA, RAMOS cells, 2.5 µg/mL
C-antigen (human) [57] = test: flow cytometry, live H9 cells, 100 µg/mL; remark: listed apart in the source
C-antigen (human) [58] = test: cell-fixed ELISA, CEM cells, 2.5 µg/mL

## Control IgG1 (antibody)
C-antigen (human) [1]
  Mean Fluorescence (MF): 169

B1: recombinantly produced H11 IgG1 (antibody)
VH: QAIVTLNTQAMHPTRWELSHMVDLQAAALVISSFITEHRGLTMEFGLSWVFLVALLRGIQCQVQLVESGGGVVQPGRSLRLSCAASGFPFRSFAMHWVRQALGKGLEWVAVISYDGSTKYYADSVKGRFTISRDTSKNTVYLKMNRLRTEDTAVFYLCERQSLLGDYDHYYGLDAWGKG
VL: LEMDMEFQAQLLFLLLLWLPDITGDIVLTQSPGTLSLSPGERATLSCRASQSVSSSYLAWYQQKPGQAPRLLIYGASTRATGMPDRFSGSGSGTDFTLTISRLEPEDFAVYYCQQYGSSPQTPQITFGGGTKVEIKRTVAAPSVFIFPPS
C-antigen (human) [2]
  % Increase of MF above IgG1 control: 33%
  Mean Fluorescence (MF): 224
C-antigen (human) [3]
  % Increase of MF above IgG1 control: 14% and 10%
  Mean Fluorescence (MF): 192 and 186
C-antigen (human) [4]
  % Increase of MF above IgG1 control: 18%
  Mean Fluorescence (MF): 200
C-antigen (human) [5]
  % Increase of MF above IgG1 control: 2% and 9%
  Mean Fluorescence (MF): 172 and 184

B2: H11-scFv (scFv)
scFv: DIVLTQSPGTLSLSPGERATLSCRASQSVSSSYLAWYQQKPGQAPRLLIYGASTRATGMPDRFSGSGSGTDFTLTISRLEPEDFAVYYCQQYGSSPQTPQITFGGGTKVEIKRTVAAPSVSGGGGSGGGGSGGGGSQVQLVESGGGVVQPGRSLRLSCAASGFPFRSFAMHWVRQALGKGLEWVAVISYDGSTKYYADSVKGRFTISRDTSKNTVYLKMNSLRTEDTAVYYCARDQSLLGDYDHYYGLDVWGKGTTVTVSSGSEQKLISEEDLNHHHHH
C-antigen (human) [6]
  % FLUORESCENCE […]: 66%
  % Positive Cells: 58%
  Mean Fluorescence: 221
C-antigen (human) [7]
  O.D. at 450 nm: 1.2 O.D.
C-antigen (human) [8]
  Ka: 3.6e+08 M⁻¹
  binding sites/cell (binding sites/cell): 24000
C-antigen (human) [9]
  O.D. at 450 nm: 0.53 O.D.
C-antigen (human) [10]
  O.D. at 450 nm: 0.4 O.D.
C-antigen (human) [11]
  % FLUORESCENCE […]: 35%
  % Positive Cells: 34%
  Mean Fluorescence: 231
C-antigen (human) [12]
  O.D. at 450 nm: 0.42 O.D.
C-antigen (human) [13]
  O.D. at 450 nm: 0.65 O.D.
C-antigen (human) [14]
  % Positive Cells: 27%
  Mean Fluorescence: 224
C-antigen (human) [15]
  % FLUORESCENCE […]: 87%
  % Positive Cells: 67%
  Mean Fluorescence: 316
C-antigen (human) [16]
  % Positive Cells: 31%
  Mean Fluorescence: 206
C-antigen (human) [17]
  O.D. at 450 nm: 0.65 O.D.
C-antigen (human) [18]
  O.D. at 450 nm: 0.77 O.D.
C-antigen (human) [19]
  O.D. at 450 nm: 0.58 O.D.
C-antigen (human) [20]
  O.D. at 450 nm: 0.56 O.D.
C-antigen (human) [21]
  % Positive Cells: 37%
  Mean Fluorescence: 233
C-antigen (human) [22]
  O.D. at 450 nm: 0.54 O.D.
C-antigen (human) [23]
  % FLUORESCENCE […]: 108%
  % Positive Cells: 76%
  Mean Fluorescence: 262
C-antigen (human) [24]
  O.D. at 450 nm: 0.6 O.D.
C-antigen (human) [25]
  O.D. at 450 nm: 0.56 O.D.
C-antigen (human) [26]
  % Positive Cells: 36%
  Mean Fluorescence: 233
C-antigen (human) [27]
  O.D. at 450 nm: 0.47 O.D.
C-antigen (human) [28]
  O.D. at 450 nm: 0.08 O.D.
C-antigen (human) [29]
  O.D. at 450 nm: 0.57 O.D.
C-antigen (human) [30]
  % FLUORESCENCE […]: 143%
  % Positive Cells: 95%
  Mean Fluorescence: 423
C-antigen (human) [31]
  O.D. at 450 nm: 0.64 O.D.
C-antigen (human) [32]
  O.D. at 450 nm: 0.93 O.D.
C-antigen (human) [33]
  O.D. at 450 nm: 0.71 O.D.
C-antigen (human) [34]
  % FLUORESCENCE […]: 52%
  % Positive Cells: 38%
  Mean Fluorescence: 242
C-antigen (human) [35]
  affinity relative to control scFv: 8 to 50 fold
C-antigen (human) [36]
  % FLUORESCENCE […]: 20%
  % Positive Cells: 13%
  Mean Fluorescence: 186
C-antigen (human) [37]
  O.D. at 450 nm: 0.45 O.D.
C-antigen (human) [38]
  % Positive Cells: 80% and 76%
  Mean Fluorescence: 207 and 235
C-antigen (human) [39]
  Ka: 1.4e+09 M⁻¹
  binding sites/cell (binding sites/cell): 5000
C-antigen (human) [40]
  O.D. at 450 nm: 0.88 O.D.
C-antigen (human) [41]
  O.D. at 450 nm: 0.97 O.D.
C-antigen (human) [42]
  O.D. at 450 nm: 0.44 O.D.
C-antigen (human) [43]
  O.D. at 450 nm: 0.44 O.D.
C-antigen (human) [44]
  Ka: 3e+08 M⁻¹
C-antigen (human) [45]
  % Positive Cells: 18%
  Mean Fluorescence: 179
C-antigen (human) [46]
  % Positive Cells: 11%
  Mean Fluorescence: 156
C-antigen (human) [47]
  O.D. at 450 nm: 1.38 O.D.
C-antigen (human) [48]
  O.D. at 450 nm: 0.36 O.D.
C-antigen (human) [49]
  O.D. at 450 nm: 0.61 O.D.
C-antigen (human) [50]
  % FLUORESCENCE […]: 15%
  % Positive Cells: 9%
  Mean Fluorescence: 171
C-antigen (human) [51]
  O.D. at 450 nm: 0.41 O.D.
C-antigen (human) [52]
  % Positive Cells: 15%
  Mean Fluorescence: 255
C-antigen (human) [53]
  O.D. at 450 nm: 0.5 O.D.
C-antigen (human) [54]
  O.D. at 450 nm: 0.97 O.D.
C-antigen (human) [55]
  O.D. at 450 nm: 0.5 O.D.
C-antigen (human) [56]
  O.D. at 450 nm: 1.3 O.D.
C-antigen (human) [57]
  % Positive Cells: 13%
  Mean Fluorescence: 145
C-antigen (human) [58]
  O.D. at 450 nm: 1.4 O.D.
